From publication PMC7875338 (ACS synthetic biology, 2021)
Residue numbers refer to the chain shown, from its start.

Molecular target: beta-galactosidase (β-gal), negative control expressed in HEK293T cells (Escherichia coli K12 lacZ, assumed, UniProt P00722 = β-galactosidase)
Assay: immunostaining of cells or tissue

beta-galactosidase (β-gal), negative control expressed in HEK293T cells, sequence (P00722 whole entry): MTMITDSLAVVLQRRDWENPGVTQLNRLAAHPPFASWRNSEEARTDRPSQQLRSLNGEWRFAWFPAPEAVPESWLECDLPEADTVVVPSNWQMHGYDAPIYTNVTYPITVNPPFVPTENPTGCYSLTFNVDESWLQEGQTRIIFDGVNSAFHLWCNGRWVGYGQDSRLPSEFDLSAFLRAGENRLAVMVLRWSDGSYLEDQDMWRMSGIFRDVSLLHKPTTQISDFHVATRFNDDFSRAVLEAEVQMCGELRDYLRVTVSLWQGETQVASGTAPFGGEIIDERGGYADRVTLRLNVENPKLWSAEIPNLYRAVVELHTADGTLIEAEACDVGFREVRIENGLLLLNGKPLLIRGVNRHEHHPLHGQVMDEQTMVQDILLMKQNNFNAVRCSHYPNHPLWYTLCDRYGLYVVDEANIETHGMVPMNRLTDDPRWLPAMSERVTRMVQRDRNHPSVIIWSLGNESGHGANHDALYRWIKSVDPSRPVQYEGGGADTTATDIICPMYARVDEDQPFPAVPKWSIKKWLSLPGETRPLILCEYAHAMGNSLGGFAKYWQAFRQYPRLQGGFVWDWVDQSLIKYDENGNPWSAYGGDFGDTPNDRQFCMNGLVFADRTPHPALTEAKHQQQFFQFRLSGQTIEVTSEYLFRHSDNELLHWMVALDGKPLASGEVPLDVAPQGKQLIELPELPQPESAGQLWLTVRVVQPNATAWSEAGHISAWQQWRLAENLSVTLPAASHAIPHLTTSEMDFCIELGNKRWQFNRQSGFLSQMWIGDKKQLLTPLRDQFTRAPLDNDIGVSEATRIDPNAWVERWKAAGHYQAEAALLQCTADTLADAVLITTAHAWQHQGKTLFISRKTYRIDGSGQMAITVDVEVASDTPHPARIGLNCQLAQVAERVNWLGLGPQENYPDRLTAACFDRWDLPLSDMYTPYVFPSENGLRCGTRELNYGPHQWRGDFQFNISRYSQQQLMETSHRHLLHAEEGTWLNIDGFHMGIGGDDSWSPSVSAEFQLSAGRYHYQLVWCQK

B1: sdAb WuN1-APEX2 fusion protein (VHH)
VHH: QVKLQQSGGGLVQAGGSLRLSCAPSGRTFSVNAMGWYRQAPGKQREPVALISTGGSTNYADSVKGRFTITRDNVKNTVYLQMNTLKPEDTAVYYCYTERWKPRGIERDWGQGTQVTVSS
binding result: no binding (tested: 100 nM)

B2: sdAb WuN3-APEX2 fusion protein (VHH)
VHH: B1 VHH with Q1K, A14T, T70S
binding result: no binding (tested: 100 nM)
